Data reported in patent US20240343800A1 (Merck KGaA, published 2024).
Residue numbers refer to the chain shown, from its start.

B1: 82H02 TCE #1 (sequence optimized 82H02 bispecific TCE in Format 1A, high ROR1 / high CD3 affinity) (bispecific antibody)
heavy 1: EVQLVESGGGLVQPGGSLKLSCAASGFTFNTYAMNWVRQASGKGLEWVGRIRSKYNNYATYYADSVKGRFTISRDDSKNTLYLQMNSLKTEDTAVYYCVRHGNFGASYVSWFAYWGQGTMVTVSSASTKGPSVFPLAPSSKSTSGGTAALGCLVKDYFPEPVTVSWNSGALTSGVHTFPAVLQSSGLYSLSSVVTVPSSSLGTQTYICNVNHKPSNTKVDKKVEPKSCDKTHTCPPCPAPEAAGGPSVFLFPPKPKDTLMISRTPEVTCVVVDVSHEDPEVKFNWYVDGVEVHNAKTKPREEQYNSTYRVVSVLTVLHQDWLNGKEYKCKVSNKALGAPIEKTISKAKGQPFRPEVHLLPPSREEMTKNQVSLTCLARGFYPKDIAVEWESNGQPENNYKTTPSRQEPSQGTTTFAVTSKLTVDKSRWQQGNVFSCSVMHEALHNHYTQKTISLSPGK
heavy 2: EIVLTQSPATLSLSPGERATLSCRASQSVSSYLAWYQQKPGQAPRLLIYDASNRATGIPARFSGSGSGTDFTLTISSLEPEDFAVYYCQQRSNWPPSTFGQGTRLEIKGGGGSGGGGSGGGGSGGGGSEVQLLESGGGLVQPGGSLRLSCAASGFTFTSYAMSWVRQAPGKGLEWVSTISGSGGGTYYTDSVKGRFTISRDNSKNTLYLQMNSLRAEDTAVYYCAQGSSIFDYWGQGTLVTVSSEPKSSDKTHTCPPCPAPEAAGGPSVFLFPPKPKDTLMISRTPEVTCVVVDVSHEDPEVKFNWYVDGVEVHNAKTKPREEQYNSTYRVVSVLTVLHQDWLNGKEYKCKVSNKALGAPIEKTISKAKGQPREPQVYTLPPPSEELALNELVTLTCLVKGFYPSDIAVEWLQGSQELPREKYLTWAPVLDSDGSFFLYSILRVAAEDWKKGDTFSCSVMHEALHNHYTQKSLDRSPGKGGGGSGGGGSGGGGSGGGGSEIVLTQSPATLSLSPGERATLSCRASQSVSSYLAWYQQKPGQAPRLLIYDASNRATGIPARFSGSGSGTDFTLTISSLEPEDFAVYYCQQRSNWPPSTFGQGTRLEIKGGGGSGGGGSGGGGSGGGGSEVQLLESGGGLVQPGGSLRLSCAASGFTFTSYAMSWVRQAPGKGLEWVSTISGSGGGTYYTDSVKGRFTISRDNSKNTLYLQMNSLRAEDTAVYYCAQGSSIFDYWGQGTLVTVSS
light: QAVVTQEPSLTVSPGGTVTLTCRSSTGAVTTSNYANWVQQKPGQAPRGLIGGTNKRAPGTPARFSGSLLGGKAALTLSGVQPEDEAEYYCALWYSNLWVFGGGTKLTVLGQPKAAPSVTLFPPSSEELQANKATLVCLISDFYPGAVTVAWKADSSPVKAGVETTTPSKQSNNKYAASSYLSLTPEQWKSHRSYSCQVTHEGSTVEKTVAPTECS
notes: also called 82H02 #1; 82H02 VL1.07x1F3.5-VH1.03
B2: 82H02 TCE #2 (sequence optimized 82H02 bispecific TCE in Format 1A, high ROR1 / low CD3 affinity) (bispecific antibody)
heavy 1: B1 heavy 1 with A106N
heavy 2: B1 heavy 2
light: B1 light with A2T, R23A, G48A
notes: also called 82H02 #2; 82H02 VL1.07x1F3.5-VH1.01-VL1.01
B3: 82H02 TCE #4 (sequence optimized 82H02 bispecific TCE in Format 1A, low ROR1 / low CD3 affinity) (bispecific antibody)
heavy 1: B1 heavy 1 with A106N
heavy 2: B1 heavy 2 with S97F, S596F
light: B1 light with A2T, R23A, G48A
notes: also called 82H02 #4; 82H02 VL1.06x1F3.5-VH1.01-VL1.01

Biological target: T1, human ROR1 (on cells) (human, UniProt Q01973 30-937)
Experiment: cell-based or functional assay

Row | Binder | IFNγ release AUC, PBMCs: MDA-MB-231-0.2 | IFNγ release AUC, PBMCs: MDA-MB-231-0.4 | IFNγ release AUC, PBMCs: MDA-MB-231-0.6 | IFNγ release AUC, PBMCs: MDA-MB-231-1.3 | IFNγ release AUC, PBMCs: MDA-MB-231-7 | IFNγ release EC50, PBMCs: MDA-MB-231-0.2 | IFNγ release EC50, PBMCs: MDA-MB-231-0.4 | IFNγ release EC50, PBMCs: MDA-MB-231-0.6 | IFNγ release EC50, PBMCs: MDA-MB-231-1.3 | IFNγ release EC50, PBMCs: MDA-MB-231-7
1 | B1 | 2.09e+06 | 2.43e+06 | 3.15e+06 | 4.93e+06 | 5.16e+06 | 0.143 nM | 0.123 nM | 0.0803 nM | 0.0243 nM | 0.0204 nM
2 | B2 | 1.55e+06 | 2.03e+06 | 9.77e+06 | 4.49e+06 | 4.68e+06 | 0.192 nM | 0.151 nM | 0.0977 nM | 0.0306 nM | 0.0265 nM
3 | B3 | 1.09e+06 | 1.42e+06 | 8.23e+06 | 4.11e+06 | 4.14e+06 | 0.28 nM | 0.16 nM | 0.121 nM | 0.0351 nM | 0.0309 nM

Same assay, conditions: not given

Row | Binder | IFNγ release Emax, PBMCs: MDA-MB-231-0.2 | IFNγ release Emax, PBMCs: MDA-MB-231-0.4 | IFNγ release Emax, PBMCs: MDA-MB-231-0.6 | IFNγ release Emax, PBMCs: MDA-MB-231-1.3 | IFNγ release Emax, PBMCs: MDA-MB-231-7
4 | B1 | 2860% | 3050% | 3980% | 5260% | 5420%
5 | B2 | 2270% | 2670% | 3670% | 4850% | 4970%
6 | B3 | 1730% | 1840% | 2780% | 4560% | 4480%

Biological target: T2, human CD3 (on Jurkat T cells or human CD8+ T cells) (human, UniProt P07766 23-207; P09693 23-182; P04234 22-171; P20963 22-164)
T2 construct: Entries are printed with signal peptides; also called huCD3; CD3ε
Experiment: flow cytometry, human CD8+ T cells
Procedure: (§1) After 15-minutes of incubation at room temperature, the cells were washed twice with 200 μL of PBS by centrifugation at 500×g for 5 minutes at room temperature and resuspended in […] of 10% goat serum in BD staining buffer (BD Biosciences, Cat No: 554657). […] The plates were then covered with foil to avoid direct light and incubated for 60 minutes at 4° C. […] After incubating for 30 minutes at 4° C., the cells were washed twice with 200 μL of PBS by centrifugation at 500×g for 5 minutes at room temperature and resuspended into 100 μL of fixation buffer (BioLegend, Cat No: 420801). The samples were then analyzed on a flow cytometer for binding signal using FlowJo software. ROR and CD3 binding EC₅₀s (concentration vs mean fluorescence intensity (MFI)) for reference molecules and test bispecific TCEs were obtained using 4-parameter non-linear regression curve fitting in GraphPad Prism.

T2 sequence (P07766 23-207 limits assumed, chain 1 of 4): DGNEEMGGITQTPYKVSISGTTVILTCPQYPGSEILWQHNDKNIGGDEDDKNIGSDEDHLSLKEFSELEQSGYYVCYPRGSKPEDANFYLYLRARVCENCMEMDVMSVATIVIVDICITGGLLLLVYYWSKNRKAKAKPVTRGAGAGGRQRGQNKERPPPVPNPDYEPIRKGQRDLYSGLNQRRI
T2 sequence (P09693 23-182 limits assumed, chain 2 of 4): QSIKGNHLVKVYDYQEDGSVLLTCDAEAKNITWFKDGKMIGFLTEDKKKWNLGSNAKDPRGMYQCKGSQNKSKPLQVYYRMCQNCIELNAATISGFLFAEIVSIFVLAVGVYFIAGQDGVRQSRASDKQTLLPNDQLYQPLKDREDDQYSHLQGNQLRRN
T2 sequence (P04234 22-171 limits assumed, chain 3 of 4): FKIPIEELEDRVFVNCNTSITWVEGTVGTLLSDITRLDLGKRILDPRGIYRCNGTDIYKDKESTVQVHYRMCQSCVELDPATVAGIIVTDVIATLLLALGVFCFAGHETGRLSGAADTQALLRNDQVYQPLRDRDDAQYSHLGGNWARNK
T2 sequence (P20963 22-164 limits assumed, chain 4 of 4): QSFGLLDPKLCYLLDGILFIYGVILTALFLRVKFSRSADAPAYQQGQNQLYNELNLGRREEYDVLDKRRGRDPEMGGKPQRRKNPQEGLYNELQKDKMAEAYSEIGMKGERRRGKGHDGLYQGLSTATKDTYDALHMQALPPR

Row | Binder | EC50
7 | B1 | 2.8 nM
8 | B2 | 19.8 nM
9 | B3 | 20.4 nM

Biological target: T3, mouse ROR1 (on 4T1 cells engineered to overexpress it) (mouse, UniProt Q9Z139 30-937)
T3 construct: whole, on cells; also called muROR1; mROR1
Experiment: flow cytometry; reference: human ROR1 on MDA-MB-231 cells

Row | Binder | fold difference in apparent ROR1 binding affinity between human and mouse ROR1
10 | B1 | ~3 fold
11 | B2 | ~3 fold
12 | B3 | ~6.5 fold

Biological target: T1, human ROR1 (on cells)
Experiment: cell-based or functional assay
Remark: another data set of the same source

Row | Binder | TDCC EC50, PBMCs: MDA-MB-231
13 | B1 | 24.6 nM
14 | B2 | 43.9 nM
15 | B3 | 168 nM

Biological target: T1, human ROR1 (on cells)
Experiment: cell-based or functional assay
Remark: another data set of the same source

Row | Binder | TDCC AUC, PBMCs: MDA-MB-231-0.2 | TDCC AUC, PBMCs: MDA-MB-231-0.4 | TDCC AUC, PBMCs: MDA-MB-231-0.6 | TDCC AUC, PBMCs: MDA-MB-231-1.3 | TDCC AUC, PBMCs: MDA-MB-231-7 | TDCC EC50, PBMCs: MDA-MB-231-0.2 | TDCC EC50, PBMCs: MDA-MB-231-0.4 | TDCC EC50, PBMCs: MDA-MB-231-0.6 | TDCC EC50, PBMCs: MDA-MB-231-1.3 | TDCC EC50, PBMCs: MDA-MB-231-7
16 | B1 | 39000 | 50200 | 57100 | 64800 | 74200 | 0.0119 nM | 0.0103 nM | 0.01 nM | 0.00703 nM | 0.00433 nM
17 | B2 | 35700 | 47600 | 54100 | 63700 | 72000 | 0.0137 nM | 0.0125 nM | 0.0105 nM | 0.00896 nM | 0.0047 nM
18 | B3 | 25900 | 41900 | 46300 | 58900 | 68300 | 0.0223 nM | 0.0196 nM | 0.0152 nM | 0.0112 nM | 0.00653 nM

Same assay, conditions: not given

Row | Binder | TDCC Emax, PBMCs: MDA-MB-231-0.2 | TDCC Emax, PBMCs: MDA-MB-231-0.4 | TDCC Emax, PBMCs: MDA-MB-231-0.6 | TDCC Emax, PBMCs: MDA-MB-231-1.3 | TDCC Emax, PBMCs: MDA-MB-231-7
19 | B1 | 40.7% | 52.2% | 60.2% | 66.5% | 75.8%
20 | B2 | 37.5% | 50.2% | 56.8% | 65.4% | 74.1%
21 | B3 | 27.4% | 45% | 51.5% | 60.4% | 70.3%

Biological target: T1, human ROR1 (on cells)
Experiment: flow cytometry, ROR1+ MDA-MB-231 cells
Procedure: as §1

Row | Binder | EC50
22 | B1 | 0.81 nM
23 | B2 | 0.72 nM
24 | B3 | 76.5 nM

Biological target: T1, human ROR1 (on cells)
Experiment: cell-based or functional assay
Remark: another data set of the same source

Row | Binder | IFNγ release EC50, PBMCs: MDA-MB-231 | Max IFNγ, PBMCs: MDA-MB-231
25 | B1 | 205 nM | 1120 pg/mL
26 | B2 | 265 nM | 1000 pg/mL
27 | B3 | 509 nM | 764 pg/mL

Biological target: T4, cynomolgus CD3 (on cynomolgus pan-T cells) (cynomolgus, UniProt Q95LI5 22-198)
T4 construct: whole, on cells
Experiment: flow cytometry, cynomolgus pan-T cells
Procedure: as §1

T4 sequence (Q95LI5 22-198): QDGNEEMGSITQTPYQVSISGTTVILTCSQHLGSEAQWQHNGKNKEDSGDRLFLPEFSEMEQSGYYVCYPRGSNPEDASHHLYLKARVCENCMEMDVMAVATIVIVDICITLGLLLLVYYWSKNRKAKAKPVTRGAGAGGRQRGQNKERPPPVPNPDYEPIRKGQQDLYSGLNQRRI

Row | Binder | EC50
28 | B1 | 4.1 nM
29 | B2 | 26.2 nM
30 | B3 | 27.7 nM

Biological target: T3, mouse ROR1 (on 4T1 cells engineered to …)
Experiment: flow cytometry, 4T1 cells overexpressing mouse ROR1
Procedure: as §1

Row | Binder | EC50
31 | B1 | 2.19 nM
32 | B2 | 2.24 nM
33 | B3 | 496 nM
